Experiment [1] has as its system CD23 shedding in Ramos cells. In words: CD23 release from Ramos cells, soluble CD23 ELISA. It is filed as cell-based. The settings on record: 150-600 nM, IL-4, 24 hr, FIG. 2A. How it is done:
(§1) ADAM 10 prodomains were also tested in assays to determine if ADAM 10 protein functions as a CD23 sheddase. Cells (100,000 per well) were seeded in round-bottomed 96-well plates (Sarstedt, Newton, N.C.) in 0.2 ml of media supplemented with IL-4 with inhibitors (A10 23-215 150-600 nM, GM6001 10-50 μM, TAPI-2 10-50 μM, or TIMPs 250 nM) or vehicle controls (A10 23-215 buffer: 25 mM NaH2PO4 pH 7.0, 125 mM KCl, 75 mM NaCl 20% glycerol, PBS, or dimethyl sulfoxide). Cells were cultured for 24 hr. The conditioned medium was harvested by centrifugation (2000×g, 15 min). The conditioned medium was assayed by ELISA for soluble CD23 according to the manufacturers' instructions (BD Biosciences, Invitrogen).
Background: In an ELISA, binding on a coated surface is turned into a signal by an enzyme label.

The test system of another experiment is MMP 1, 2, 3, 9, 13, 14. The experiment can be described thus: Inhibition assays with MMPs. Type of experiment: biochemical. As to the method:
Inhibition assays with MMPs. The fluorescent substrate Dabcyl-GPLGMRGC (Fluorescein)-NH2 (SEQ ID NO 18) (10 μM) in assay buffer containing 50 mM Tris, pH 7.5, 150 mM NaCl, 2 mM CaCl2, 5 μM ZnSO4, and 0.01% Brij-35 was used to monitor enzyme activities. MMPs 1, 2, 3, 9, 13, and 14 (0.1-20 nM) were incubated with substrate in the absence or presence of prodomain (3-30 μM). Fluorescence intensities were measured every 3-5 minutes at an emission wavelength of 530 nm (excitation 485 nm).
(§2) Calculation of inhibition constants. The amount of activity was calculated by subtracting the ADAM 10 prodomain control from the ADAM 10 prodomain with enzyme. All inhibition assays were performed at room temperature and the data fit to the following equation using Sigma Plot software:
(§3) [formula] where If is fractional inhibition, I is the inhibitor concentration and Ki is the inhibition constant.

Experiment [2] has as its target T1, mouse ADAM 10 catalytic domain (Mus musculus, UniProt O35598).
T1 construct: mouse ADAM 10 catalytic domain (unpublished observation)
T1 sequence (O35598 221-457 limits assumed): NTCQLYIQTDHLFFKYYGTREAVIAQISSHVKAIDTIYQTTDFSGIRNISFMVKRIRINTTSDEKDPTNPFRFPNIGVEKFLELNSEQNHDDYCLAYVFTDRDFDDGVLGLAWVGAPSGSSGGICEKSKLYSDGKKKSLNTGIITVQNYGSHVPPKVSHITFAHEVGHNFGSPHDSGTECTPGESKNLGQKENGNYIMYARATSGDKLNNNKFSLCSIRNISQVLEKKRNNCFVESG
In words: Inhibition of mouse ADAM 10 catalytic domain (unpublished observation). It is filed as biochemical. As to the method:
Mechanism of ADAM 10 prodomain inhibition. For metalloproteinases that exist as zymogens, the presence of a cysteine in their prodomains is often necessary for inhibition of catalytic activity. […] For some of the ADAM family members, the cysteine is required for efficient inhibition of the enzyme. Therefore, a test was conducted to determine whether the cysteine in the putative cysteine switch of ADAM10 prodomain affected the potency of inhibition by preparing a C-terminal His tag construct with the only cysteine mutated to serine. […] The wild type prodomains (23-213), containing either the N- or C-terminal His tags, were both efficient inhibitors of ADAM10 (Table II), with inhibition constants of 75 and 48 nM respectively.

Another experiment addresses T2, TACE (human) Cat/Dis (Homo sapiens, UniProt P78536).
T2 construct: containing the catalytic/disintegrin domains; purchased R & D Systems (Minneapolis, Minn., USA)
In words: Inhibition assay with TACE catalytic/disintegrin construct, fluorescent substrate. Type of experiment: biochemical. The following applies: room temperature; read-out: inhibition constant, TACE (human) Cat/Dis. How it is done:
(§4) Inhibition assays with TACE and ADAM 10. Activity of TACE catalytic/disintegrin, TACE catalytic, or ADAM10 catalytic/disintegrin constructs was monitored at 3 minute intervals using the fluorescent substrate, Dabcyl-LAQAHomoPheRSC(Fluorescein)-NH2 (SEQ ID NO 17) with excitation 485 nm and emission 530 nm. The substrate was diluted from a 10 mM stock in DMSO to 10 μM in assay buffer containing 20 mM Tris, pH 8.0, and 0.0006% Brij-35. Reactions were run in a 96-well black-coated plate with either ADAM10 prodomain (10 nM-1.0 μM) alone or with enzyme. Concentrations of enzyme ranged from 0.5-2.0 nM for TACE and 5-15 nM for ADAM10. For assays with TACE and ADAM8 prodomain, the range of concentrations varied from 1-4.7 μM.
as §2, §3

Experiment [3] concerns CD23 shedding in U937 cells. In words: CD23 release from U937 cells, soluble CD23 ELISA. The following applies: 150-600 nM, IL-4, 24 hr, FIG. 2B. It is filed as cell-based. How it is done:
as §1

The next experiment deals with T3, TACE (human) Cat (Homo sapiens, UniProt P78536).
T3 construct: TACE catalytic domain, Marcos Milla, University of Pennsylvania; donated by Marcos Milla, University of Pennsylvania
T3 sequence (P78536 223-474 limits assumed): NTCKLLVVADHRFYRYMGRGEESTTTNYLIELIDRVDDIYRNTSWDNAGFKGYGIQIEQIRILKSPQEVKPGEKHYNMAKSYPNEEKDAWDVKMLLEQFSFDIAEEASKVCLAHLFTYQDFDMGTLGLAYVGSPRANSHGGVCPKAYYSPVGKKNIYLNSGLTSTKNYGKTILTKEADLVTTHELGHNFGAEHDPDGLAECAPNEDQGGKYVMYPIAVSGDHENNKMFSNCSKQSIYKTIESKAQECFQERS
In words: Inhibition assay with TACE catalytic domain, fluorescent substrate. It is filed as biochemical. The following applies: room temperature; read-out: inhibition constant, TACE (human) Cat. How it is done: as §4, §2, §3

T2 sequence (P78536 215-671 limits assumed): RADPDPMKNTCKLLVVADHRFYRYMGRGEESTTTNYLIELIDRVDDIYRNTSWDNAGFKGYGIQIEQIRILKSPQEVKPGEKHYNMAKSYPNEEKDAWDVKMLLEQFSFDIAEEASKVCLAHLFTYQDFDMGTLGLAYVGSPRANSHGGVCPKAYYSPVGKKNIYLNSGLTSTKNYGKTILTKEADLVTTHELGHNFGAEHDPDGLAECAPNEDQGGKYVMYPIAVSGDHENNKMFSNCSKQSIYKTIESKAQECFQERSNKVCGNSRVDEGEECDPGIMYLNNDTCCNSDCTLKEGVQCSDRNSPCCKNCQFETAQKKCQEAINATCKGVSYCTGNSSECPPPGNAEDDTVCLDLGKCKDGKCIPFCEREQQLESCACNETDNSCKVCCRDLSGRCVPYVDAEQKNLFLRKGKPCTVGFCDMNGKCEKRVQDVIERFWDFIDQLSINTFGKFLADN

B1: C173S ProADAM 10 23-213 (C-terminal His tag): mouse ADAM 10 prodomain 23-213 with cysteine 173 mutated to serine, C-terminal His tag (protein, UniProt O35598 23-213, looked up, variant C173S)
chain: NPLNKYIRHYEGLSYNVDSLHQKHQRAKRAVSHEDQFLLLDFHAHGRQFNLRMKRDTSLFSDEFKVETSNKVLDYDTSHIYTGHIYGEEGSFSHGSVIDGRFEGFIKTRGGTFYIEPAERYIKDRILPFHSVIYHEDDINYPHKYGPQGGSADHSVFERMRKYQMTGVEEGARAHPEKHAASSGPELLRKK
modifications: pro-form C-terminal His tag
notes: mouse ADAM 10 prodomain 23-213 with cysteine 173 mutated to serine, C-terminal His tag
Regarding B1, the “inhibition of CD23 shedding, Ramos cells” value in experiment [1] is given as “about 30%”. Moreover, in the experiment with MMP 1, 2, 3, 9, 13, 14 (3 μM prodomain), the “inhibition of matrix metalloproteinases 1, 2, 3, 9, 13 and 14” value was “not inhibited”. In addition, the Ki on MMP 1, 2, 3, 9, 13, 14 (read-out: inhibition constant, MMP 1, 2, 3, 9, 13, 14) was greater than 2000 nM; in experiment [2], 17 ± 10 nM; in the experiment with TACE (human) Cat/Dis, greater than 3000 nM; with TACE (human) Cat it was greater than 3000 nM. Also, the “inhibition of CD23 shedding, U937 cells” value in experiment [3] was “about 30%”.

For the origin of these results see patent US8034783B2, “Prodomain modulators of ADAM 10” (Biozyme, Inc., priority 2006, dated 2011).
